This is an account of results in PMC5593996.

The target of data set [1] is second RNA-recognition motif (RRM2) of TDP-43, wild type, residues 191-265 (human) (UniProt Q13148). The data set can be described thus: NMR HSQC peak intensities (fraction of globular monomer); reduced samples: first treated with 5 mM H2O2, then with 25 mM DTT.
Data set [2] addresses Q13148. Described as above. The settings on record: other: NMR HSQC peak intensities (fraction of globular monomer).
For data set [3], the target named is second RNA-recognition motif (RRM2) of TDP-43, wild type, residues 191-265 (human) (UniProt Q13148). The data set can be described thus: cross-linking; disulfide-linked oligomers on non-reducing SDS-PAGE (14% tris-glycine, Coomassie, densitometry); 1 mM protein incubated 2 h with 5 mM H2O2.
Data set [4] deals with Q13148. The data set can be described thus: dynamic light scattering + other: pulsed-field-gradient NMR diffusion; fully oxidized sample (5 mM H2O2, about 31 h); size distribution of aggregate particles fitted to both diffusion coefficients (Eq. 6), NMR on peak N265'.
The target of data set [5] is second RNA-recognition motif (RRM2) of TDP-43, wild type, residues 191-265 (human) (UniProt Q13148). The data set can be described thus: NMR HSQC peak intensities (fraction of globular monomer); 1 mM RRM2 under oxidation with 5 mM H2O2 (2 h or 24 h); loss of monomer signals taken as conversion into oligomers and aggregate particles; standard phosphate buffer pH 6.7.
Data set [6] addresses Q13148. Described as above. The settings on record: other: NMR HSQC peak intensities (fraction of globular monomer).

B1: second RNA-recognition motif (RRM2) of TDP-43, wild type, residues 191-265 (protein)
chain: MRKVFVGRCTEDMTEDELREFFSQYGDVMDVFIPKPFRAFAFVTFADDQIAQSLCGEDLIIKGISVHISNAEPKHN
Molecule B1 had a percent monomer in the reduced samples in data set [1] of 84%. In addition, in the data set with Q13148 [2], the “percent of protein mass still aggregated after 2 h oxidation and 3 h reduction” value is reported as “ca. 19% of the protein by mass remains in the aggregate form”; the “percent of protein mass still aggregated after 24 h oxidation and 24 h reduction” value is “ca. 40% of the protein mass in this sample remains in the aggregated state”. In addition, in data set [3], the fraction of cross-linked protein molecules (gel densitometry, 2 h with 5 mM H2O2) turned out to be 40%. In the data set with Q13148 [4], the “mass fraction of the aggregate mass in all other aggregate particles” value is “all other APs combined account for 83% of the aggregate mass” and the “mass fraction of the aggregate mass that is disulfide-bonded dimers” value was “The mass fraction of the disulfide-bonded dimers is 17%”. In data set [5], this molecule showed a percent (mass fraction) left as globular monomer after 24 h with 5 mM H2O2 of 4.5% and a percent left as globular monomer after 2 h with 5 mM H2O2 of 40%. In addition, the “percent of the protein in aggregate particles after 2 h with 5 mM H2O2” value with Q13148 [6] was 60% (±4%) of the protein has been transformed into APs.
